Publication PMC9482650, “Quantitative fragmentomics allow affinity mapping of interactomes” (Nature Communications, 2022)
One block for each binder: values may come before it.

Tests used:
Test in all cases: holdup assay
Set-up in all cases: key: below the threshold = too weak to quantify, mostly under pKd 3.1 to 4
LNX2_3, Q8N448 = molecular target: T1, LNX2_3, Q8N448
T1 sequence (Q8N448 463-564, limits assumed, looked up): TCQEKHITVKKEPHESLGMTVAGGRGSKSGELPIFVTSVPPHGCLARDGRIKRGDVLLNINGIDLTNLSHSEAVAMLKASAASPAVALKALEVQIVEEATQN

DFNB31_1, Q9P202 = molecular target: T2, DFNB31_1, Q9P202
T2 sequence (Q9P202 135-233, limits assumed, looked up): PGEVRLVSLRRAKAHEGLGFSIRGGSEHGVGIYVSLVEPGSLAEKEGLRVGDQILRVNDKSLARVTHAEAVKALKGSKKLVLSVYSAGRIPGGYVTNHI

LNX1_2, Q8TBB1 = molecular target: LNX1_2, Q8TBB1
NHERF4_4, Q86UT5 = molecular target: NHERF4_4, Q86UT5
GRIP1_3, Q9Y3R0 = molecular target: T3, GRIP1_3, Q9Y3R0
T3 sequence (Q9Y3R0 247-346, limits assumed, looked up): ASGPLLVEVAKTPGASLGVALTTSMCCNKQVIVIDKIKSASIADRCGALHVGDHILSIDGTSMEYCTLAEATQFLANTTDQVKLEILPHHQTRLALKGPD

MAGI2_2, Q86UL8 = molecular target: MAGI2_2, Q86UL8
FRMPD2_2, Q68DX3 = molecular target: FRMPD2_2, Q68DX3
NHERF3_3, Q5T2W1 = molecular target: T4, NHERF3_3, Q5T2W1
T4 sequence (Q5T2W1 238-333, limits assumed, looked up): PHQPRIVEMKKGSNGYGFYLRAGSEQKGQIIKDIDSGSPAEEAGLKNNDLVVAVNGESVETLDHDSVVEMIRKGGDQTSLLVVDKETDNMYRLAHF

PDLIM1, O00151 = molecular target: PDLIM1, O00151
APBA2_2, Q99767 = molecular target: T5, APBA2_2, Q99767
T5 sequence (Q99767 654-744, limits assumed, looked up): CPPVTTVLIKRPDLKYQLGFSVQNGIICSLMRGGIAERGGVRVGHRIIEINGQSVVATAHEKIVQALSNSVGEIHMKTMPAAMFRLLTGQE

MAGI1_1, Q96QZ7 = molecular target: MAGI1_1, Q96QZ7
GRID2IP_1, A4D2P6 = molecular target: GRID2IP_1, A4D2P6
Inadl_6, Q8NI35 = molecular target: Inadl_6, Q8NI35
CARD11, Q9BXL7 = molecular target: T6, CARD11, Q9BXL7
T6 sequence (Q9BXL7 662-765, limits assumed, looked up): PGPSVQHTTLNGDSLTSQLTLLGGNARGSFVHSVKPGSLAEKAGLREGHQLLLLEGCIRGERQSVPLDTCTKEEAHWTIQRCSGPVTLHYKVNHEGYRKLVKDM

MPDZ_12, O75970 = molecular target: T7, MPDZ_12, O75970
T7 sequence (O75970 1857-1958, limits assumed, looked up): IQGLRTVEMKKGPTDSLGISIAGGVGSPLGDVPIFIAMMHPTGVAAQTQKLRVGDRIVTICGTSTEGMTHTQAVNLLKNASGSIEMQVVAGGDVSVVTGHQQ

GRIP1_7, Q9Y3R0 = molecular target: T8, GRIP1_7, Q9Y3R0
T8 sequence (Q9Y3R0 999-1096, limits assumed, looked up): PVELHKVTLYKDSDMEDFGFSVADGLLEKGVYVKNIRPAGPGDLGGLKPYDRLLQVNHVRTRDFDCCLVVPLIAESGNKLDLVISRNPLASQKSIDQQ

LIMK2, P53671 = molecular target: LIMK2, P53671
GRIP1_2, Q9Y3R0 = molecular target: T9, GRIP1_2, Q9Y3R0
T9 sequence (Q9Y3R0 145-248, limits assumed, looked up): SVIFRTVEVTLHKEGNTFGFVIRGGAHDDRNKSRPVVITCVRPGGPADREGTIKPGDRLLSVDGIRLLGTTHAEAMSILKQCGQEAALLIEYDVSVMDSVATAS

SIPA1L2, Q9P2F8 = molecular target: T10, SIPA1L2, Q9P2F8
T10 sequence (Q9P2F8 945-1036, limits assumed, looked up): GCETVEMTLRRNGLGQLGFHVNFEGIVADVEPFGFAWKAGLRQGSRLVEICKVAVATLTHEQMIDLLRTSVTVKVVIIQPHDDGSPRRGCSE

RADIL, Q96JH8 = molecular target: T11, RADIL, Q96JH8
T11 sequence (Q96JH8 971-1071, limits assumed, looked up): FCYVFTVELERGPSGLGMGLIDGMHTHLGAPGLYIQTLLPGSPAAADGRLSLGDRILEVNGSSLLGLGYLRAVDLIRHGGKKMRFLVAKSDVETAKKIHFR

GRID2IP_2, A4D2P6 = molecular target: GRID2IP_2, A4D2P6
GRIP2_4, Q9C0E4 = molecular target: GRIP2_4, Q9C0E4
IL16_1, Q14005 = molecular target: IL16_1, Q14005
ARHGEF12, Q9NZN5-2 = molecular target: ARHGEF12, Q9NZN5-2
MAGI2_5, Q86UL8 = molecular target: MAGI2_5, Q86UL8
CASK, O14936 = molecular target: CASK, O14936
Inadl_9, Q8NI35 = molecular target: Inadl_9, Q8NI35
[1] = plain residues with an end cap or a label only (N-terminal biotin on a linker: ttds)
[2] = plain residues with an end cap or a label only (N-terminal biotin on a linker: ahx)

Chain of GRIP2_4, Q9C0E4 (Q9C0E4 446-548): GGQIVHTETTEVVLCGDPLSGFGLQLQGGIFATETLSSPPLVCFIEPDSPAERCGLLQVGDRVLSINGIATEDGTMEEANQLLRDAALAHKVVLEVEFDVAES
Chain of GRID2IP_1, A4D2P6 (A4D2P6 1-87): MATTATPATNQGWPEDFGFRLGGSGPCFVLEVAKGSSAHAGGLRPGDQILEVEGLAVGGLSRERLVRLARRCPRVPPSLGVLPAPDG
Chain of ARHGEF12, Q9NZN5-2 (Q9NZN5 other isoform, or with tags, fused parts or gaps): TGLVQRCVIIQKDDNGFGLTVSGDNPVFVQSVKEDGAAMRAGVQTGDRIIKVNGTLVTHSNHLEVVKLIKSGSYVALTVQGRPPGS
Chain of LIMK2, P53671 (P53671 143-248): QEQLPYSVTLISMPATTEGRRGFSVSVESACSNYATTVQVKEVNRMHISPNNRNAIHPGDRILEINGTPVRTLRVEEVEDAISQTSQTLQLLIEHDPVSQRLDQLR
Chain of FRMPD2_2, Q68DX3 (Q68DX3 944-1038): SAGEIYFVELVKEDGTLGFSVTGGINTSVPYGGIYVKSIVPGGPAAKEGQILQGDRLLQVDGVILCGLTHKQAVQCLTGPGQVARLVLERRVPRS
Chain of MAGI2_5, Q86UL8 (Q86UL8 915-1017): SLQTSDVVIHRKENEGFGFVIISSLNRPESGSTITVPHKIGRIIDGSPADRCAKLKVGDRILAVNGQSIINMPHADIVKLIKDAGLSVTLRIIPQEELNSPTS
Chain of MAGI2_2, Q86UL8 (Q86UL8 410-522): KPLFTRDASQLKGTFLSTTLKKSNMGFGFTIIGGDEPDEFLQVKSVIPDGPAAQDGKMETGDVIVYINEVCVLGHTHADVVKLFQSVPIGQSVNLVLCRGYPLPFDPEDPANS
Chain of PDLIM1, O00151 (O00151 1-87): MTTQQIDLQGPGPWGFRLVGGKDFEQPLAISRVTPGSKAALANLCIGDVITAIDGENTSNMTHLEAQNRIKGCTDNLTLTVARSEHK
Chain of Inadl_9, Q8NI35 (Q8NI35 1530-1615): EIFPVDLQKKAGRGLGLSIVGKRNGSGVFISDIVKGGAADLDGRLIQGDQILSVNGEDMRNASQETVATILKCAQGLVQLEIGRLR
Chain of LNX1_2, Q8TBB1 (Q8TBB1 371-470): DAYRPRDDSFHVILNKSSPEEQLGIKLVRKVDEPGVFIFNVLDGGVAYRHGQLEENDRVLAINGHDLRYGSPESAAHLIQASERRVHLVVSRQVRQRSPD
Chain of Inadl_6, Q8NI35 (Q8NI35 1058-1167): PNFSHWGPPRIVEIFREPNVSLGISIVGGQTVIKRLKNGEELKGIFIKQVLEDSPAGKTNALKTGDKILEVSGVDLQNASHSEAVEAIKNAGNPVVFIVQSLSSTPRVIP
Chain of IL16_1, Q14005 (Q14005 210-306): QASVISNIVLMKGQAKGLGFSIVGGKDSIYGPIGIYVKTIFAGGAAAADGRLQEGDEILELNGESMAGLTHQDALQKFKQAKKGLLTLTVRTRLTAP
Chain of NHERF4_4, Q86UT5 (Q86UT5 464-550): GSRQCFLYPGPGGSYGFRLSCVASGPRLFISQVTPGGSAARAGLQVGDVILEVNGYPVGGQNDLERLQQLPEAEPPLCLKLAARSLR
Chain of CASK, O14936 (O14936 487-570): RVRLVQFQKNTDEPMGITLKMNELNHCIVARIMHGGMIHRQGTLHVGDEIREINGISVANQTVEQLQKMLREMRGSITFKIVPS
Chain of MAGI1_1, Q96QZ7 (Q96QZ7 1-106): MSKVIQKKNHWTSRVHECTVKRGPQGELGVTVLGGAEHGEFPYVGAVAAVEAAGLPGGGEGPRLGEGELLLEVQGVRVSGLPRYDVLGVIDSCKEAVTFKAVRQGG
Chain of GRID2IP_2, A4D2P6 (A4D2P6 272-370): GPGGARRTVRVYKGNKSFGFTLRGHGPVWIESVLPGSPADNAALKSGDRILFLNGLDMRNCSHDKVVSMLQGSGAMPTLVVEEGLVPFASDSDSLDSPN

- pKd (LNX2_3, Q8N448; [1]): below the threshold
- pKd (DFNB31_1, Q9P202; [1]): 3.98
- pKd (LNX1_2, Q8TBB1; [1]): below the threshold
- pKd (NHERF4_4, Q86UT5; [1]): below the threshold
- pKd (GRIP1_3, Q9Y3R0; [1]): below the threshold
- pKd (MAGI2_2, Q86UL8; [1]): 3.63
- pKd (FRMPD2_2, Q68DX3; [1]): below the threshold
- pKd (NHERF3_3, Q5T2W1; [1]): below the threshold
- pKd (PDLIM1, O00151; [1]): below the threshold
- pKd (APBA2_2, Q99767; [1]): below the threshold
- pKd (MAGI1_1, Q96QZ7; [1]): below the threshold
- pKd (GRID2IP_1, A4D2P6; [1]): below the threshold
- pKd (Inadl_6, Q8NI35; [1]): 3.53
- pKd (CARD11, Q9BXL7; [1]): below the threshold
- pKd (MPDZ_12, O75970; [1]): below the threshold
- pKd (GRIP1_7, Q9Y3R0; [1]): below the threshold
- pKd (LIMK2, P53671; [1]): below the threshold
- pKd (GRIP1_2, Q9Y3R0; [1]): below the threshold
- pKd (SIPA1L2, Q9P2F8; [1]): below the threshold
- pKd (RADIL, Q96JH8; [1]): below the threshold
- pKd (GRID2IP_2, A4D2P6; [1]): below the threshold
- pKd (GRIP2_4, Q9C0E4; [1]): below the threshold
- pKd (IL16_1, Q14005; [1]): below the threshold
- pKd (ARHGEF12, Q9NZN5-2; [1]): 4.17
- pKd (MAGI2_5, Q86UL8; [1]): 3.67
- pKd (CASK, O14936; [1]): below the threshold
- pKd (Inadl_9, Q8NI35; [1]): below the threshold
Binder: DKDPHSETAL [TMIGD1, Q6UXZ0]

- pKd (LNX2_3, Q8N448; [1]): below the threshold
- pKd (DFNB31_1, Q9P202; [1]): 3.98
- pKd (LNX1_2, Q8TBB1; [1]): below the threshold
- pKd (NHERF4_4, Q86UT5; [1]): below the threshold
- pKd (GRIP1_3, Q9Y3R0; [1]): below the threshold
- pKd (MAGI2_2, Q86UL8; [1]): 3.77
- pKd (FRMPD2_2, Q68DX3; [1]): below the threshold
- pKd (NHERF3_3, Q5T2W1; [1]): below the threshold
- pKd (PDLIM1, O00151; [1]): below the threshold
- pKd (APBA2_2, Q99767; [1]): below the threshold
- pKd (MAGI1_1, Q96QZ7; [1]): below the threshold
- pKd (GRID2IP_1, A4D2P6; [1]): below the threshold
- pKd (Inadl_6, Q8NI35; [1]): 3.71
- pKd (CARD11, Q9BXL7; [1]): below the threshold
- pKd (MPDZ_12, O75970; [1]): below the threshold
- pKd (GRIP1_7, Q9Y3R0; [1]): below the threshold
- pKd (LIMK2, P53671; [1]): below the threshold
- pKd (GRIP1_2, Q9Y3R0; [1]): below the threshold
- pKd (SIPA1L2, Q9P2F8; [1]): below the threshold
- pKd (RADIL, Q96JH8; [1]): below the threshold
- pKd (GRID2IP_2, A4D2P6; [1]): 4.02
- pKd (GRIP2_4, Q9C0E4; [1]): below the threshold
- pKd (IL16_1, Q14005; [1]): below the threshold
- pKd (ARHGEF12, Q9NZN5-2; [1]): 4.29
- pKd (MAGI2_5, Q86UL8; [1]): 3.52
- pKd (CASK, O14936; [1]): below the threshold
- pKd (Inadl_9, Q8NI35; [1]): below the threshold
Binder: KKYVDAETSL [SLC4A7, Q9Y6M7]

- pKd (LNX2_3, Q8N448; [2]): below the threshold
- pKd (DFNB31_1, Q9P202; [2]): below the threshold
- pKd (LNX1_2, Q8TBB1; [2]): below the threshold
- pKd (NHERF4_4, Q86UT5; [2]): below the threshold
- pKd (GRIP1_3, Q9Y3R0; [2]): below the threshold
- pKd (MAGI2_2, Q86UL8; [2]): below the threshold
- pKd (FRMPD2_2, Q68DX3; [2]): below the threshold
- pKd (NHERF3_3, Q5T2W1; [2]): below the threshold
- pKd (PDLIM1, O00151; [2]): below the threshold
- pKd (APBA2_2, Q99767; [2]): below the threshold
- pKd (MAGI1_1, Q96QZ7; [2]): below the threshold
- pKd (GRID2IP_1, A4D2P6; [2]): below the threshold
- pKd (Inadl_6, Q8NI35; [2]): below the threshold
- pKd (CARD11, Q9BXL7; [2]): below the threshold
- pKd (MPDZ_12, O75970; [2]): below the threshold
- pKd (GRIP1_7, Q9Y3R0; [2]): below the threshold
- pKd (LIMK2, P53671; [2]): below the threshold
- pKd (GRIP1_2, Q9Y3R0; [2]): below the threshold
- pKd (SIPA1L2, Q9P2F8; [2]): below the threshold
- pKd (RADIL, Q96JH8; [2]): below the threshold
- pKd (GRID2IP_2, A4D2P6; [2]): below the threshold
- pKd (GRIP2_4, Q9C0E4; [2]): below the threshold
- pKd (IL16_1, Q14005; [2]): below the threshold
- pKd (ARHGEF12, Q9NZN5-2; [2]): below the threshold
- pKd (MAGI2_5, Q86UL8; [2]): below the threshold
- pKd (CASK, O14936; [2]): below the threshold
- pKd (Inadl_9, Q8NI35; [2]): below the threshold
Binder: ESLLLGPSNF [SHROOM4, Q9ULL8]
